Measured values published in PMC12748787.

Biological target: Trx-CaV1.2 JBM (mouse) (UniProt Q01815)
Test: ITC

Chain of Trx-CaV1.2 JBM (mouse) (Q01815 1647-1777): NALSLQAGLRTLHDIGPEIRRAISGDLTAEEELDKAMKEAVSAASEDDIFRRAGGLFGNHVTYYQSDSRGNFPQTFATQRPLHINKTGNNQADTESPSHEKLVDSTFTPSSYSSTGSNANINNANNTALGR

| Substance | fold reduction in binding affinity against the wild type [fold] | other results |
| --- | --- | --- |
| JPH2 NT E85K (from UniProt Q9ET78 1-440) (domain or fragment) | 3 | – |
| JR-JBM chimera R160E/F165S (from UniProt Q9ET78 1-155; Q9ET78 168-440) (domain or fragment) | – | Kd: 42 µM |
| JPH2 NT A399S (A405S in mouse JPH2) (from UniProt Q9ET78 1-440) (domain or fragment) | 3 | – |
| MBP-JPH2 NT S165F (mouse) (from UniProt Q9ET78 1-440) (domain or fragment) | – | fold decrease in binding affinity against the wild type: > 5 fold |
